Test results published in PMC3405243, “Segmental isotopic labeling of a 140 kDa dimeric multi-domain protein CheA from Escherichia coli by expressed protein ligation and protein trans-splicing” (Journal of Biomolecular Nmr, 2012).

T1: ligated CheA P1(Q153)/(S154C)P2–5 produced by expressed protein ligation (EPL) (E. coli, UniProt P07363 1-654, S154C)
T1 construct: CheA, E. coli, amplified from genomic DNA of strain BL21; Inteins and CBD of both fragments were removed before ligation; also called ligation product of P1/P2–5; source: fragments expressed in E. coli BL21-CodonPlus (DE3)-RP, purified, ligated in vitro (EPL)
T1 sequence (looked up): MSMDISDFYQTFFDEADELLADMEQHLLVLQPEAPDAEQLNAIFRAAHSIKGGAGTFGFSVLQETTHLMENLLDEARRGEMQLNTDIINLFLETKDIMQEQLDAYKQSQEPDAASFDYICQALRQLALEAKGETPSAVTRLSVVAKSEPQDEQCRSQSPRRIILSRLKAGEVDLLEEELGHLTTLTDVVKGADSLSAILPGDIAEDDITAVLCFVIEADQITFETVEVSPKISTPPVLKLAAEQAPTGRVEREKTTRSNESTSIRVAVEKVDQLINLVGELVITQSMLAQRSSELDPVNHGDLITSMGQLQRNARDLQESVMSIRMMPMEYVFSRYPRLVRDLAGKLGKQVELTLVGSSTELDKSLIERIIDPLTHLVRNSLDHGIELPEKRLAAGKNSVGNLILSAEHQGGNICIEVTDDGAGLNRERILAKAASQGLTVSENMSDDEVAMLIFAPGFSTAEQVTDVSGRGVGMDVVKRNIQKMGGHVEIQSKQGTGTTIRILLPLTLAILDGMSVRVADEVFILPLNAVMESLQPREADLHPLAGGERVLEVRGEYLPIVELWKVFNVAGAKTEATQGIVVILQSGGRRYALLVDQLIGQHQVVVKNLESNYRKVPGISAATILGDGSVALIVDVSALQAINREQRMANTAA

B1: ligated CheA P1(Q153G)/(S154C)P2–5 produced by expressed protein ligation (EPL) (enzyme, E. coli, UniProt P07363 1-654, looked up)
chain: MSMDISDFYQTFFDEADELLADMEQHLLVLQPEAPDAEQLNAIFRAAHSIKGGAGTFGFSVLQETTHLMENLLDEARRGEMQLNTDIINLFLETKDIMQEQLDAYKQSQEPDAASFDYICQALRQLALEAKGETPSAVTRLSVVAKSEPQDEGCRSQSPRRIILSRLKAGEVDLLEEELGHLTTLTDVVKGADSLSAILPGDIAEDDITAVLCFVIEADQITFETVEVSPKISTPPVLKLAAEQAPTGRVEREKTTRSNESTSIRVAVEKVDQLINLVGELVITQSMLAQRSSELDPVNHGDLITSMGQLQRNARDLQESVMSIRMMPMEYVFSRYPRLVRDLAGKLGKQVELTLVGSSTELDKSLIERIIDPLTHLVRNSLDHGIELPEKRLAAGKNSVGNLILSAEHQGGNICIEVTDDGAGLNRERILAKAASQGLTVSENMSDDEVAMLIFAPGFSTAEQVTDVSGRGVGMDVVKRNIQKMGGHVEIQSKQGTGTTIRILLPLTLAILDGMSVRVADEVFILPLNAVMESLQPREADLHPLAGGERVLEVRGEYLPIVELWKVFNVAGAKTEATQGIVVILQSGGRRYALLVDQLIGQHQVVVKNLESNYRKVPGISAATILGDGSVALIVDVSALQAINREQRMANTAA
notes: CheA, E. coli, amplified from genomic DNA of strain BL21; P1 fragment was made as a C-terminal Mxe GyrA intein-CBD fusion and P2–5 as an N-terminal CBD-Ssp DnaB intein fusion (pTWIN1); both inteins were removed before ligation; NMR samples were [2H,15N]-labeled in P1; UniProt entry is of strain K-12; the DNA was from strain BL21; also called Q153G/S154C dimer; ligated product

Key:
[1] = target: T1, ligated CheA P1(Q153)/(S154C)P2–5 …; assay: co-purification (SEC, then separation by anion exchange chromatography); EPL reaction mixture of purified fragments; Superdex 200, then ResourceQ in TEDG buffer with a 0–500 mM NaCl gradient; heterodimer separated from the ligated homodimer; settings: both partners purified
[2] = target: B1; assay: as above; settings: both partners purified
[3] = target: the molecule itself; assay: SEC; HiLoad 16/60 Superdex 200 prep grade, TEDG buffer (50 mM Tris pH 7.5, 0.5 mM EDTA, 2 mM DTT, 10% glycerol) with 150 mM NaCl; elution volume compared with immunoglobulin G (158 kDa)

| binding result [1] | binding result [2] | Binder | stoichiometry N [3] |
| --- | --- | --- | --- |
| binds | binds | (S154C)P2–5 domains of CheA (domain or fragment, E. coli, UniProt P07363 154-654, looked up, CheA P2–5 domains, E. coli, amplified from genomic DNA of strain BL21, residues S154 to A654 with cysteine at the N-terminus; also called unreacted (S154C)P2–5; unreacted P2–5; source: E. coli BL21-CodonPlus (DE3)-RP, purified (chitin beads, intein cleavage); not shown: CBD-Ssp DnaB intein, N-terminal, cleaved) CRSQSPRRIILSRLKAGEVDLLEEELGHLTTLTDVVKGADSLSAILPGDIAEDDITAVLCFVIEADQITFETVEVSPKISTPPVLKLAAEQAPTGRVEREKTTRSNESTSIRVAVEKVDQLINLVGELVITQSMLAQRSSELDPVNHGDLITSMGQLQRNARDLQESVMSIRMMPMEYVFSRYPRLVRDLAGKLGKQVELTLVGSSTELDKSLIERIIDPLTHLVRNSLDHGIELPEKRLAAGKNSVGNLILSAEHQGGNICIEVTDDGAGLNRERILAKAASQGLTVSENMSDDEVAMLIFAPGFSTAEQVTDVSGRGVGMDVVKRNIQKMGGHVEIQSKQGTGTTIRILLPLTLAILDGMSVRVADEVFILPLNAVMESLQPREADLHPLAGGERVLEVRGEYLPIVELWKVFNVAGAKTEATQGIVVILQSGGRRYALLVDQLIGQHQVVVKNLESNYRKVPGISAATILGDGSVALIVDVSALQAINREQRMANTAA |  |
|  |  | B1 | 2 |
|  |  | ligated CheA P12^(2)/^(5)P3–5 produced by protein trans-splicing (PTS) in vivo (enzyme, E. coli, CheA P12 domains, E. coli, amplified from genomic DNA of strain BL21, residues 1–238; stands instead of KLAAEQA of the P2-P3 linker; CheA P3–5 domains, E. coli, amplified from genomic DNA of strain BL21, residues 246–654; H6-Smt3 was removed with Ulp1; results and methods give a different order of SEC and tag removal, so its state at the SEC is open; P12 part [2H,15N]-labeled in the NMR sample; …) MSMDISDFYQTFFDEADELLADMEQHLLVLQPEAPDAEQLNAIFRAAHSIKGGAGTFGFSVLQETTHLMENLLDEARRGEMQLNTDIINLFLETKDIMQEQLDAYKQSQEPDAASFDYICQALRQLALEAKGETPSAVTRLSVVAKSEPQDEQSRSQSPRRIILSRLKAGEVDLLEEELGHLTTLTDVVKGADSLSAILPGDIAEDDITAVLCFVIEADQITFETVEVSPKISTPPVLGSCFNGTPTGRVEREKTTRSNESTSIRVAVEKVDQLINLVGELVITQSMLAQRSSELDPVNHGDLITSMGQLQRNARDLQESVMSIRMMPMEYVFSRYPRLVRDLAGKLGKQVELTLVGSSTELDKSLIERIIDPLTHLVRNSLDHGIELPEKRLAAGKNSVGNLILSAEHQGGNICIEVTDDGAGLNRERILAKAASQGLTVSENMSDDEVAMLIFAPGFSTAEQVTDVSGRGVGMDVVKRNIQKMGGHVEIQSKQGTGTTIRILLPLTLAILDGMSVRVADEVFILPLNAVMESLQPREADLHPLAGGERVLEVRGEYLPIVELWKVFNVAGAKTEATQGIVVILQSGGRRYALLVDQLIGQHQVVVKNLESNYRKVPGISAATILGDGSVALIVDVSALQAINREQRMANTAA | 2 |
